Test results as given in patent publication US20220411483A1 (Chugai, published 2022).
Values belong to the binder of their own block, whether it stands above or below them.

Legend:
[1] = molecular target: T1, FcγRIa extracellular domain with C-terminal His tag (human, UniProt P12314 16-292); assay: SPR (Biacore), FcgR as analyte
T1 construct: also called FcgRIa

[2] = molecular target: T2, FcγRIIa R type extracellular domain with C-terminal His tag (human, UniProt P12318 34-217); assay: SPR (Biacore), FcgR as analyte
T2 construct: extracellular domain; also called FcgRIIaR
T2 sequence (looked up): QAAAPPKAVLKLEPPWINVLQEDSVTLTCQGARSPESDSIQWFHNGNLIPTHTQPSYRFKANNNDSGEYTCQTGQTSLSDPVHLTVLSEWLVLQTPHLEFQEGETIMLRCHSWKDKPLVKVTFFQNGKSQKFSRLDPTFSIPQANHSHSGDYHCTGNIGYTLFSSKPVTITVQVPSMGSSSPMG

T1 sequence (P12314 16-292): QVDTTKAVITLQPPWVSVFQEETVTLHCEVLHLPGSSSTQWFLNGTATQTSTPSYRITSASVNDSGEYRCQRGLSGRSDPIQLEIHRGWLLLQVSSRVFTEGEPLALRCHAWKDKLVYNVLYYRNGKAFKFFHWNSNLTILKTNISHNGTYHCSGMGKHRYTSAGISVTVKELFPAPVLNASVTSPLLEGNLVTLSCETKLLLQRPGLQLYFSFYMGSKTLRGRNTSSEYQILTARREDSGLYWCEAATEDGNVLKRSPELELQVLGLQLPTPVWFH

B1: IL6R-BP182/IL6R-L (antibody, human IgG1, kappa, name in EU numbering)
heavy: QVQLQESGPGLVKPSETLSLTCAVSGHSISHDHAWSWVRQPPGEGLEWIGFISYSGITNYNPSLQGRVTISRDNSKNTLYLQMNSLRAEDTAVYYCARSLARTTAMDYWGEGTLVTVSSASTKGPSVFPLAPSSKSTSGGTAALGCLVKDYFPEPVTVSWNSGALTSGVHTFPAVLQSSGLYSLSSVVTVPSSSLGTQTYICNVNHKPSNTKVDKKVEPKSCDKTHTCPPCPAPDLLGGDSVFLFPPKPKDTLMISRTPEVTCVVVDVSHEDGEVKFNWYVDGVEVHNAKTKPREEQDNSTYRVVSVLTVLHQDWLNGKEYKCKVSNKALPKPIEKTISKAKGQPREPQVYTLPPSRDELTKNQVSLTCLVKGFYPSDIAVEWESNGQPENNYKTTPPVLDSDGSFFLYSKLTVDKSRWQQGNVFSCSVMHEALHNHYTQESLSLSP
light: not shown
notes: IgG1; alterations on IL6R-B3, EU numbering
- Kd [1]: 10 nM

B2: IL6R-BP187/IL6R-L (antibody, human IgG1, kappa, name in EU numbering)
heavy: QVQLQESGPGLVKPSETLSLTCAVSGHSISHDHAWSWVRQPPGEGLEWIGFISYSGITNYNPSLQGRVTISRDNSKNTLYLQMNSLRAEDTAVYYCARSLARTTAMDYWGEGTLVTVSSASTKGPSVFPLAPSSKSTSGGTAALGCLVKDYFPEPVTVSWNSGALTSGVHTFPAVLQSSGLYSLSSVVTVPSSSLGTQTYICNVNHKPSNTKVDKKVEPKSCDKTHTCPPCPAPEYLGGDSVFLFPPKPKDTLMISRTPEVTCVVVDVSHEDGEVKFNWYVDGVEVHNAKTKPREEQYNSTYRVVSVLTVLHQDWLNGKEYKCKVSNAALPKPIEKTISKAKGQPREPQVYTLPPSRDELTKNQVSLTCLVKGFYPSDIAVEWESNGQPENNYKTTPPVLDSDGSFFLYSKLTVDKSRWQQGNVFSCSVMHEALHNHYTQESLSLSP
light: not shown
notes: as for B1
- Kd [1]: 25 nM
- Kd [2]: 2800 nM

B3: IL6R-BP189/IL6R-L (antibody, human IgG1, kappa, name in EU numbering)
heavy: QVQLQESGPGLVKPSETLSLTCAVSGHSISHDHAWSWVRQPPGEGLEWIGFISYSGITNYNPSLQGRVTISRDNSKNTLYLQMNSLRAEDTAVYYCARSLARTTAMDYWGEGTLVTVSSASTKGPSVFPLAPSSKSTSGGTAALGCLVKDYFPEPVTVSWNSGALTSGVHTFPAVLQSSGLYSLSSVVTVPSSSLGTQTYICNVNHKPSNTKVDKKVEPKSCDKTHTCPPCPAPELLGDDSVFLFPPKPKDTLMISRTPEVTCVVVDVSDEDGEVKFNWYVDGVEVHNAKTKPREEQYNSTYRVVSVLTVLHQDWLNGKEYKCKVSNAALPKPIEKTISKAKGQPREPQVYTLPPSRDELTKNQVSLTCLVKGFYPSDIAVEWESNGQPENNYKTTPPVLDSDGSFFLYSKLTVDKSRWQQGNVFSCSVMHEALHNHYTQESLSLSP
light: not shown
notes: as for B1
- Kd [1]: 42 nM

B6: IL6R-BP202/IL6R-L (antibody, human IgG1, kappa, name in EU numbering)
heavy: QVQLQESGPGLVKPSETLSLTCAVSGHSISHDHAWSWVRQPPGEGLEWIGFISYSGITNYNPSLQGRVTISRDNSKNTLYLQMNSLRAEDTAVYYCARSLARTTAMDYWGEGTLVTVSSASTKGPSVFPLAPSSKSTSGGTAALGCLVKDYFPEPVTVSWNSGALTSGVHTFPAVLQSSGLYSLSSVVTVPSSSLGTQTYICNVNHKPSNTKVDKKVEPKSCDKTHTCPPCPAPELLGDDSVFLFPPKPKDTLMISRTPEVTCVVVDVSHEDGEVKFNWYVDGVEVHNAKTKPREEQYNSTYRVVSVLTVLHQDWLNGKEYKCKVSNAALPRPIEKTISKAKGQPREPQVYTLPPSRDELTKNQVSLTCLVKGFYPSDIAVEWESNGQPENNYKTTPPVLDSDGSFFLYSKLTVDKSRWQQGNVFSCSVMHEALHNHYTQESLSLSP
light: not shown
notes: as for B1
- Kd [1]: 95 nM

B7: IL6R-BP203/IL6R-L (antibody, human IgG1, kappa, name in EU numbering)
heavy: QVQLQESGPGLVKPSETLSLTCAVSGHSISHDHAWSWVRQPPGEGLEWIGFISYSGITNYNPSLQGRVTISRDNSKNTLYLQMNSLRAEDTAVYYCARSLARTTAMDYWGEGTLVTVSSASTKGPSVFPLAPSSKSTSGGTAALGCLVKDYFPEPVTVSWNSGALTSGVHTFPAVLQSSGLYSLSSVVTVPSSSLGTQTYICNVNHKPSNTKVDKKVEPKSCDKTHTCPPCPAPELLGDDSVFLFPPKPKDTLMISRTPEVTCVVVDVSHEDGEVKFNWYVDGVEVHNAKTKPREEQYNSTYRVVSVLTVLHQDWLNGKEYKCKVSNKALPRPIEKTISKAKGQPREPQVYTLPPSRDELTKNQVSLTCLVKGFYPSDIAVEWESNGQPENNYKTTPPVLDSDGSFFLYSKLTVDKSRWQQGNVFSCSVMHEALHNHYTQESLSLSP
light: not shown
notes: as for B1
- Kd [1]: 180 nM
- Kd [2]: 990 nM

B8: IL6R-BP220/IL6R-L (antibody, human IgG1, kappa, name in EU numbering)
heavy: QVQLQESGPGLVKPSETLSLTCAVSGHSISHDHAWSWVRQPPGEGLEWIGFISYSGITNYNPSLQGRVTISRDNSKNTLYLQMNSLRAEDTAVYYCARSLARTTAMDYWGEGTLVTVSSASTKGPSVFPLAPSSKSTSGGTAALGCLVKDYFPEPVTVSWNSGALTSGVHTFPAVLQSSGLYSLSSVVTVPSSSLGTQTYICNVNHKPSNTKVDKKVEPKSCDKTHTCPPCPAPDLLGDDSVFLFPPKPKDTLMISRTPEVTCVVVDVSDEDGEVKFNWYVDGVEVHNAKTKPREEQDNSTYRVVSVLTVLHQDWLNGKEYKCKVSNKALPKPIEKTISKAKGQPREPQVYTLPPSRDELTKNQVSLTCLVKGFYPSDIAVEWESNGQPENNYKTTPPVLDSDGSFFLYSKLTVDKSRWQQGNVFSCSVMHEALHNHYTQESLSLSP
light: not shown
notes: as for B1
- Kd [1]: 20 nM

B9: IL6R-BP233/IL6R-L (antibody, human IgG1, kappa, name in EU numbering)
heavy: QVQLQESGPGLVKPSETLSLTCAVSGHSISHDHAWSWVRQPPGEGLEWIGFISYSGITNYNPSLQGRVTISRDNSKNTLYLQMNSLRAEDTAVYYCARSLARTTAMDYWGEGTLVTVSSASTKGPSVFPLAPSSKSTSGGTAALGCLVKDYFPEPVTVSWNSGALTSGVHTFPAVLQSSGLYSLSSVVTVPSSSLGTQTYICNVNHKPSNTKVDKKVEPKSCDKTHTCPPCPAPEYLGDDSVFLFPPKPKDTLMISRTPEVTCVVVDVSHEDGEVKFNWYVDGVEVHNAKTKPREEQYNSTYRVVSVLTVLHQDWLNGKEYKCKVSNKALPKPIEKTISKAKGQPREPQVYTLPPSRDELTKNQVSLTCLVKGFYPSDIAVEWESNGQPENNYKTTPPVLDSDGSFFLYSKLTVDKSRWQQGNVFSCSVMHEALHNHYTQESLSLSP
light: not shown
notes: as for B1
- Kd [1]: 70 nM

Binders with a lower Kd [1], results first:

- Kd [1]: 4 nM
- Kd [2]: 3000 nM
B4: IL6R-BP191/IL6R-L (antibody, human IgG1, kappa, name in EU numbering)
heavy: QVQLQESGPGLVKPSETLSLTCAVSGHSISHDHAWSWVRQPPGEGLEWIGFISYSGITNYNPSLQGRVTISRDNSKNTLYLQMNSLRAEDTAVYYCARSLARTTAMDYWGEGTLVTVSSASTKGPSVFPLAPSSKSTSGGTAALGCLVKDYFPEPVTVSWNSGALTSGVHTFPAVLQSSGLYSLSSVVTVPSSSLGTQTYICNVNHKPSNTKVDKKVEPKSCDKTHTCPPCPAPDLLGGDSVFLFPPKPKDTLMISRTPEVTCVVVDVSDEDGEVKFNWYVDGVEVHNAKTKPREEQYNSTYRVVSVLTVLHQDWLNGKEYKCKVSNAALPKPIEKTISKAKGQPREPQVYTLPPSRDELTKNQVSLTCLVKGFYPSDIAVEWESNGQPENNYKTTPPVLDSDGSFFLYSKLTVDKSRWQQGNVFSCSVMHEALHNHYTQESLSLSP
light: not shown
notes: as for B1

- Kd [1]: 6.6 nM
- Kd [2]: 2600 nM
B5: IL6R-BP192/IL6R-L (antibody, human IgG1, kappa, name in EU numbering)
heavy: QVQLQESGPGLVKPSETLSLTCAVSGHSISHDHAWSWVRQPPGEGLEWIGFISYSGITNYNPSLQGRVTISRDNSKNTLYLQMNSLRAEDTAVYYCARSLARTTAMDYWGEGTLVTVSSASTKGPSVFPLAPSSKSTSGGTAALGCLVKDYFPEPVTVSWNSGALTSGVHTFPAVLQSSGLYSLSSVVTVPSSSLGTQTYICNVNHKPSNTKVDKKVEPKSCDKTHTCPPCPAPDLLGGDSVFLFPPKPKDTLMISRTPEVTCVVVDVSDEDGEVKFNWYVDGVEVHNAKTKPREEQDNSTYRVVSVLTVLHQDWLNGKEYKCKVSNKALPKPIEKTISKAKGQPREPQVYTLPPSRDELTKNQVSLTCLVKGFYPSDIAVEWESNGQPENNYKTTPPVLDSDGSFFLYSKLTVDKSRWQQGNVFSCSVMHEALHNHYTQESLSLSP
light: not shown
notes: as for B1

- Kd [1]: 3 nM
B10: IL6R-BP243/IL6R-L (antibody, human IgG1, kappa, name in EU numbering)
heavy: QVQLQESGPGLVKPSETLSLTCAVSGHSISHDHAWSWVRQPPGEGLEWIGFISYSGITNYNPSLQGRVTISRDNSKNTLYLQMNSLRAEDTAVYYCARSLARTTAMDYWGEGTLVTVSSASTKGPSVFPLAPSSKSTSGGTAALGCLVKDYFPEPVTVSWNSGALTSGVHTFPAVLQSSGLYSLSSVVTVPSSSLGTQTYICNVNHKPSNTKVDKKVEPKSCDKTHTCPPCPAPDYLGDDSVFLFPPKPKDTLMISRTPEVTCVVVDVSDEDGEVKFNWYVDGVEVHNAKTKPREEQYNSTYRVVSVLTVLHQDWLNGKEYKCKVSNKALPRPIEKTISKAKGQPREPQVYTLPPSRDELTKNQVSLTCLVKGFYPSDIAVEWESNGQPENNYKTTPPVLDSDGSFFLYSKLTVDKSRWQQGNVFSCSVMHEALHNHYTQESLSLSP
light: not shown
notes: as for B1

- Kd [1]: 8 nM
B11: IL6R-BP246/IL6R-L (antibody, human IgG1, kappa, name in EU numbering)
heavy: QVQLQESGPGLVKPSETLSLTCAVSGHSISHDHAWSWVRQPPGEGLEWIGFISYSGITNYNPSLQGRVTISRDNSKNTLYLQMNSLRAEDTAVYYCARSLARTTAMDYWGEGTLVTVSSASTKGPSVFPLAPSSKSTSGGTAALGCLVKDYFPEPVTVSWNSGALTSGVHTFPAVLQSSGLYSLSSVVTVPSSSLGTQTYICNVNHKPSNTKVDKKVEPKSCDKTHTCPPCPAPDLLGDDSVFLFPPKPKDTLMISRTPEVTCVVVDVQDEDGEVKFNWYVDGVEVHNAKTKPREEQDNSTYRVVSVLTVLHQDWLNGKEYKCKVSNAALPRPIEKTISKAKGQPREPQVYTLPPSRDELTKNQVSLTCLVKGFYPSDIAVEWESNGQPENNYKTTPPVLDSDGSFFLYSKLTVDKSRWQQGNVFSCSVMHEALHNHYTQESLSLSP
light: not shown
notes: as for B1
